In test [1] the target is T1, full-length human LRRK2 (leucine-rich repeat kinase 2) (human, UniProt Q5S007). Kind of test: MST.
For test [2], the target named is LRRK2 N-terminal armadillo (ARM) domain construct (Homo sapiens, UniProt Q5S007). Nature of the test: ELISA. In general terms: An ELISA detects its analyte on a solid surface through an enzyme-linked reagent.
The target in test [3] is T1, full-length human LRRK2 (leucine-rich …). Kind of test: ELISA.
Test [4] addresses endogenous (mouse) LRRK2 (Mus musculus, UniProt Q5S006). Kind of test: pull-down.
The target of test [5] is LRRK2 RocCOR domain construct (Homo sapiens, UniProt Q5S007). Nature of the test: ELISA.
For test [6], the target named is LRRK2 Roc domain (Homo sapiens, UniProt Q5S007). Kind of test: ELISA.
The target in test [7] is LRRK2 C-terminal subdomain of COR (COR-B) (Homo sapiens, UniProt Q5S007). Nature of the test: ELISA.
For test [8], the target named is LRRK2 kinase-WD40 (K-WD40) two-domain construct (Homo sapiens, UniProt Q5S007). Nature of the test: ELISA.
Test [9] deals with LRRK2 Roc-COR-Kinase-WD40 (RCKW) domain construct (Homo sapiens, UniProt Q5S007, biotinylated (in the BLI experiment)). Nature of the test: BLI. On the technique in general: BLI is a label-free optical method that tracks binding on a fibre tip over time.
The target in test [10] is T1, full-length human LRRK2 (leucine-rich …). Kind of test: BLI.
Test [11] has the same target. Nature of the test: enzyme kinetics.

Usually Kd stands for a measure of binding affinity in units of concentration. Higher therefore signals weaker binding. A word on the EC50: it is the concentration at which the effect is half-maximal. The low end stands for an effect from little substance, the high end for a need for much substance. The term Ki denotes the dissociation constant of the complex between target and ligand, obtained from inhibition or displacement. A high value points to a looser hold on the target.

LRRK2 N-terminal armadillo (ARM) domain construct, sequence (Q5S007 whole entry, looked up, tested part not stated): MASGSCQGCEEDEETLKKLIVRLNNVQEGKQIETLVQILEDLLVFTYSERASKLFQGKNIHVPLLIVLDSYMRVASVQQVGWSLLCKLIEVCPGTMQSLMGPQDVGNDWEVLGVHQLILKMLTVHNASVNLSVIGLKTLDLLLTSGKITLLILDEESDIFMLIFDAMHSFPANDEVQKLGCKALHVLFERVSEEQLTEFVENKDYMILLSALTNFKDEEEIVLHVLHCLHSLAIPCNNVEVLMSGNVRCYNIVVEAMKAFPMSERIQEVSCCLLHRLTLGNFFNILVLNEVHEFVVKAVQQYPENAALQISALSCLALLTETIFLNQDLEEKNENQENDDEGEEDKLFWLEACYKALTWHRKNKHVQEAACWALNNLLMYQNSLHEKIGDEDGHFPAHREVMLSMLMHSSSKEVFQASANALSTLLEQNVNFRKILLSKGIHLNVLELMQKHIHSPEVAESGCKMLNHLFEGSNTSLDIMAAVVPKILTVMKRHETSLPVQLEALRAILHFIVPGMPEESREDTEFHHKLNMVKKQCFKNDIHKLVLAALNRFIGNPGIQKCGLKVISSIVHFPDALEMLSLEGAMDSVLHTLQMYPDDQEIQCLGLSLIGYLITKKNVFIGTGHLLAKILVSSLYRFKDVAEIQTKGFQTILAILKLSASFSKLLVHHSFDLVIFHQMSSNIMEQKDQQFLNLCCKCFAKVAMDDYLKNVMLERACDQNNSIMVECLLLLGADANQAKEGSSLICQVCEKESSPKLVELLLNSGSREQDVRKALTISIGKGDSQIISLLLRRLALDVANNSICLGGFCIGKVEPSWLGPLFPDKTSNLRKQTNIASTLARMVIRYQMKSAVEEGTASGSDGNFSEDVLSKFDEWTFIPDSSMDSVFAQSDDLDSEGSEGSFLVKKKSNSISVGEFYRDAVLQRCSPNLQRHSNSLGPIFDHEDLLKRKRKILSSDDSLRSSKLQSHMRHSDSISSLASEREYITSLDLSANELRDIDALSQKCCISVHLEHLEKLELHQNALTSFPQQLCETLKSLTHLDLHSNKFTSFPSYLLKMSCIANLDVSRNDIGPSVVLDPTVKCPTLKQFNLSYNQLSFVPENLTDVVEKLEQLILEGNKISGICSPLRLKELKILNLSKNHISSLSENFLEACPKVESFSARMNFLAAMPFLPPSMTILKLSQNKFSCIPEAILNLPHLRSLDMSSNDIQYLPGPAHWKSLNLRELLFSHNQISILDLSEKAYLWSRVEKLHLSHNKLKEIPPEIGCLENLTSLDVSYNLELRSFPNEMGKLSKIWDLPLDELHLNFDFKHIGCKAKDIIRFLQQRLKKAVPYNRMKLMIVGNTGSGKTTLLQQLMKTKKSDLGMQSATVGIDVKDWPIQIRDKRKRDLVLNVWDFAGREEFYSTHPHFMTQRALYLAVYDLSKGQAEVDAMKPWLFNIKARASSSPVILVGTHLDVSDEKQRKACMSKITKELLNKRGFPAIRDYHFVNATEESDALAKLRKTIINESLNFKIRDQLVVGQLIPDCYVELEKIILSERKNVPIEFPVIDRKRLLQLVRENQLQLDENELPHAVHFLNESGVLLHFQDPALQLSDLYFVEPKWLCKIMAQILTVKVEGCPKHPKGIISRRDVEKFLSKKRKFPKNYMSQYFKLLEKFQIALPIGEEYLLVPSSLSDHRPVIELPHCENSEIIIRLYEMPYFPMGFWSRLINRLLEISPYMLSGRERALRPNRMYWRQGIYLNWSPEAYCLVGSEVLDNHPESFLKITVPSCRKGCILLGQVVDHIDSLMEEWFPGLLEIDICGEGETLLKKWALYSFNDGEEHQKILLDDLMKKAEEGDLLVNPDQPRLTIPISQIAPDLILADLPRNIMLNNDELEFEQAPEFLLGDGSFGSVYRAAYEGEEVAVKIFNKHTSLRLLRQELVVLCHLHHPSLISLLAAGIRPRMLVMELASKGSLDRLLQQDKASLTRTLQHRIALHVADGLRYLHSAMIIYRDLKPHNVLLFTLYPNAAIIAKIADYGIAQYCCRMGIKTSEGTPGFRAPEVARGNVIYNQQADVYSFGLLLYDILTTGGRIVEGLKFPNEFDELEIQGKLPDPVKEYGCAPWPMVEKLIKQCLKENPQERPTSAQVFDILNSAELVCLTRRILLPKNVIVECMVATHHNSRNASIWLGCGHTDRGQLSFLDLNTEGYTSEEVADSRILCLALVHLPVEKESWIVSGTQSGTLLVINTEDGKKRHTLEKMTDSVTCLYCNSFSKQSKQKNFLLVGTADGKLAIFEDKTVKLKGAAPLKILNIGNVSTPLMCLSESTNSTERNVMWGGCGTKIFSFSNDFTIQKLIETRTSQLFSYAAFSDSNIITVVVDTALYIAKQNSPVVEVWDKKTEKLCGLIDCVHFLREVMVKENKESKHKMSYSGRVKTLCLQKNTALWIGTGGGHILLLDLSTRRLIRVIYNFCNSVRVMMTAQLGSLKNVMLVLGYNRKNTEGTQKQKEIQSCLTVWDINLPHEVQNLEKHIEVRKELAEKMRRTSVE
LRRK2 kinase-WD40 (K-WD40) two-domain construct, sequence (Q5S007 whole entry, looked up, tested part not stated): as above
T1 sequence (Q5S007 whole entry): as the sequence (Q5S007 whole entry, looked up, tested part not stated) above
LRRK2 Roc-COR-Kinase-WD40 (RCKW) domain construct, sequence (Q5S007 whole entry, looked up, tested part not stated): as above
LRRK2 RocCOR domain construct, sequence (Q5S007 whole entry, looked up, the tested form may be a part): as the sequence (Q5S007 whole entry, looked up, tested part not stated) above
LRRK2 C-terminal subdomain of COR (COR-B), sequence (Q5S007 whole entry, looked up, tested part not stated): as above
LRRK2 Roc domain, sequence (Q5S007 1328-1511): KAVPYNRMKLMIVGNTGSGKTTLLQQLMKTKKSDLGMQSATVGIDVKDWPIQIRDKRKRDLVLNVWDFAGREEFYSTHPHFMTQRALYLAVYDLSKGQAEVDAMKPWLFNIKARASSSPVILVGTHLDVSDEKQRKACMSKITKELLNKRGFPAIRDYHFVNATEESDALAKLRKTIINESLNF

B1: m-TAMRA-labeled Nb17 (VHH)
VHH: QVQLVESGGGLVQPGGSLRLSCAASGSNIGYMAWYRQAPGSQRELVARIASGGSANYADSVKGRFTISRDNVKNTVYLHMNSLKPVDTAVYYCHADAWYNSRWSDYWGQGTQVTVSS
Consider B1, for which, in test [1], binding was put at a Kd of 67 ± 24 nM.

B2: Nb17 (VHH)
VHH: QVQLVESGGGLVQPGGSLRLSCAASGSNIGYMAWYRQAPGSQRELVARIASGGSANYADSVKGRFTISRDNVKNTVYLHMNSLKPVDTAVYYCHADAWYNSRWSDYWGQGTQVTVSS
As to B2, the binding result in [2] is given as “no binding”; in [4] it was “binds”; in test [5], “no binding”; in test [6], “no binding”; in test [7], “no binding”; in test [8], “no binding”. Besides, the binding result in [9] is listed as “no binding”. This molecule also had a 50% effective concentration (EC50) in [3] of approximately 3 nM. Further, the “EC50 in presence of Rab8a (20 µM)” value in test [3] was approximately 5 nM. Besides, binding in test [10] was put at a Kd of 2 ± 0.3 nM.

B3: Nb23 (VHH)
VHH: QVQLVESGGGLVQAGGSLRLSCAASGRTFSRYTMGWFRQAPGKDREFVARITTSGAVTTYADSAKGRFTISRDNAKNTVYLQMNTLKPEDTAVYYCAAGQGQLSSQSRFVDYWGQGTQVTVSS
Take B3: in [4], the binding result is “binds”. The molecule further registered a Kd in [9] of 17 ± 7 nM. Moreover, in test [11], affinity was put at a Ki of 9 µM and the “Kiu^app (apparent Ki for ATP-bound LRRK2)” value came out at 72 µM. In [10], this molecule had a Kd of 20 ± 5 nM.

B4: m-TAMRA-labeled Nb6 (VHH)
VHH: QVQLVESGGGLVQAGGSLRLSCAASGSIFSPTAMGWYRQAPGKERELVAGITSGGYTNYRNFARGRFTISRDNAKKTVYLQMNSLNPEDTAVYYCNTLTISWSWGQGTQVTVSS
In the case of B4, the Kd in test [1] came to 83 ± 24 nM.

B5: Nb6 (VHH)
VHH: QVQLVESGGGLVQAGGSLRLSCAASGSIFSPTAMGWYRQAPGKERELVAGITSGGYTNYRNFARGRFTISRDNAKKTVYLQMNSLNPEDTAVYYCNTLTISWSWGQGTQVTVSS
As to B5, the binding result in test [4] is “binds”. Besides, the dissociation constant (Kd) in test [9] came out at 5 ± 1 nM. In test [11], affinity was put at a Ki of 5 µM and the “Kiu^app (apparent Ki for ATP-bound LRRK2)” value amounted to 8 µM. For the same molecule, in test [10], binding was characterised by a dissociation constant (Kd) of 8 ± 1 nM.

B6: m-TAMRA-labeled Nb36 (VHH)
VHH: QVQLVESGGGLVQPGGSLRLSCAASGSIRSITTSAWFRQPPGKQRELVAGISSGTSTNYADSVKGRFTISRDNAKNTVYLQMNSLKPEDTAVYYCHVWISGTWYSGQGTQVTVSS
For the molecule B6, the affinity in test [1], expressed as Kd, was 78 ± 25 nM.

B7: Nb36 (VHH)
VHH: QVQLVESGGGLVQPGGSLRLSCAASGSIRSITTSAWFRQPPGKQRELVAGISSGTSTNYADSVKGRFTISRDNAKNTVYLQMNSLKPEDTAVYYCHVWISGTWYSGQGTQVTVSS
B7: the binding result is listed as “no binding” in test [2]; “binds” in test [4]; “no binding” in test [5]; “no binding” in test [6]; “no binding” in test [7]; “no binding” in [8]. In [9], the binding result is reported as “no binding”. The molecule further gave a Kd in test [10] of 16 ± 8 nM.

B8: m-TAMRA-labeled Nb38 (VHH)
VHH: QVQLVESGGGLVQPGGSLRLSCAASGSIRSIATSAWYRQPPGKQRELVAGISSGTTTNYADSVKGRFTISRDNAKNTVYLQMNSLKPEDTAVYYCHAWISGTWISGQGTQVTVSS
Molecule B8 showed a dissociation constant (Kd) in test [1] of 48 ± 11 nM.

B9: Nb38 (VHH)
VHH: QVQLVESGGGLVQPGGSLRLSCAASGSIRSIATSAWYRQPPGKQRELVAGISSGTTTNYADSVKGRFTISRDNAKNTVYLQMNSLKPEDTAVYYCHAWISGTWISGQGTQVTVSS
B9: the binding result is “no binding” in [2]; “binds” in test [4]; “no binding” in test [5]; “no binding” in test [6]; “no binding” in [7]; “no binding” in test [8]. The binding result in test [9] was “no binding”. Moreover, binding in [10] was characterised by a dissociation constant (Kd) of 37 ± 4 nM.

B10: m-TAMRA-labeled Nb40 (VHH)
VHH: QVQLVESGGGLVQPGGSLRLSCVASGTIYAINRMGWYRQAPGKQRELVALITLGGGTNYGDSVKGRFTISRDNAKNTGYLQMNSLKPEDTAVYYCKVESSGYTDVFWGQGTQVTVSS
In [1], B10 came in with a dissociation constant (Kd) of 26 ± 10 nM.

B11: Nb40 (VHH)
VHH: QVQLVESGGGLVQPGGSLRLSCVASGTIYAINRMGWYRQAPGKQRELVALITLGGGTNYGDSVKGRFTISRDNAKNTGYLQMNSLKPEDTAVYYCKVESSGYTDVFWGQGTQVTVSS
Turning to B11, in test [4], the binding result is “binds”. Further, the Kd turned out to be 2.6 ± 0.3 nM in test [9] and 2.5 ± 0.3 nM in test [10].

B12: m-TAMRA-labeled Nb1 (VHH)
VHH: QVQLVESGGGLVQAGGSLRLSCVASGRIFSGNAMGWYRQAPGRQRELVAGITNGGYTNYRQFVKGRFTISRDNAKRTVYLQMNSLKPEDTAVYYCNALDREARQVDYWGQGTQVTVSS
In test [1], B12 displayed a dissociation constant (Kd) of 91 ± 28 nM.

B13: Nb1 (VHH)
VHH: QVQLVESGGGLVQAGGSLRLSCVASGRIFSGNAMGWYRQAPGRQRELVAGITNGGYTNYRQFVKGRFTISRDNAKRTVYLQMNSLKPEDTAVYYCNALDREARQVDYWGQGTQVTVSS
In the case of B13, in test [4], the binding result is listed as “binds”. The dissociation constant Kd in [9] was determined as 39 ± 4 nM; in test [10], 55 ± 12 nM. In test [11], the affinity, expressed as Ki, was 16 µM. Also, the “Kiu^app (apparent Ki for ATP-bound LRRK2)” value in test [11] amounted to 30 µM.

B14: Nb42 (VHH)
VHH: QVQLVESGGGLVQAGGSLRLSCAASGDVNYAVGWFRQAPRKEREFVAAINWRGDNTDYTDSVKGRFTISRDNAKNTVYLQMNSLKPEDTAVYYCAAKSAPYWYSDIAPDYWGQGTQVTVSS
On to B14, for which the binding result in [4] is recorded as “binds”. Also, the Kd stood at 18 ± 2 nM in [9] and 58 ± 18 nM in [10].

B15: m-TAMRA-labeled Nb22 (VHH)
VHH: QVQLVESGGGLVQAGGSLRLSCAASGRTFSSYTMGWFRQAPGKEREFVAAIRWSGGSTYYADSVKGRFTISRDNAKNTVYLQMNSLKPEDTAVYYCAASDRGGFIATSGGWMDYWGKGTQVTVSS
As for B15, in [1], binding was put at a Kd of 145 ± 55 nM.

B16: Nb22 (VHH)
VHH: QVQLVESGGGLVQAGGSLRLSCAASGRTFSSYTMGWFRQAPGKEREFVAAIRWSGGSTYYADSVKGRFTISRDNAKNTVYLQMNSLKPEDTAVYYCAASDRGGFIATSGGWMDYWGKGTQVTVSS
In the case of B16, the binding result in test [4] is “binds”. Moreover, the values for the Kd in [9] and in [10] were 5 ± 1 nM and 10 ± 1 nM, respectively.

B17: m-TAMRA-labeled Nb39 (VHH)
VHH: QVQLVESGGGLVQAGGSLRLSCRASGGTFSTYAMGWFRQVPGKERETVAAVKWSGDMTYYADSVKGRFTISRDNAKNTVYLQMNSLRPEDTAVYYCAARRGLSYYRGPSEYDYWGQGTQVTVSS
In turn, B17 yielded a dissociation constant Kd in [1] of 79 ± 19 nM.

B18: Nb39 (VHH)
VHH: QVQLVESGGGLVQAGGSLRLSCRASGGTFSTYAMGWFRQVPGKERETVAAVKWSGDMTYYADSVKGRFTISRDNAKNTVYLQMNSLRPEDTAVYYCAARRGLSYYRGPSEYDYWGQGTQVTVSS
As for B18, the binding result in test [4] was “binds”; in [5], “no binding”; in [6], “no binding”; in test [7], “no binding”; in test [8], “no binding”; in test [9], “no binding”. The same molecule showed a Kd in test [10] of 12 ± 3 nM.
